Data from patent US9200252B2, “Compositions for inducing differentiation into retinal cells from retinal progenitor cells or inducing proliferation of retinal cells comprising Wnt signaling pathway activators” (SNU R&DB Foundation, priority 2009, dated 2015).
Where “and” joins values, the source holds several entries; their conditions need not be identical. Equal entries are not always repeated.

Key:
Type in all cases: cell-based, human
[1] = system: hESC-derived retinal progenitor cells; test: Differentiation into photoreceptor cells with Wnt3a or its inhibitor Dkk-1, without Shh and retinoic acid; immunofluorescent staining on Day 29
Experimental: In order to examine the function of the Wnt signaling pathway activator on differentiation from hESCs into retinal cells, particularly photoreceptor cells, cells were cultured in the presence of a Wnt signaling pathway antagonist. The Wnt/Frizzled signaling pathway inhibitor Dkk-1 (R&D Systems, Minneapolis, Minn., USA) was added at a concentration of 10 ng/ml, 100 ng/ml or 1 μg/ml on day 13, followed by culturing the cells for an additional 16 days. While the antagonist concentrations were maintained uniformly over the culture time period, the Wnt signaling pathway activator was assayed for activity. Dkk-1 was dissolved in 0.1% bovine serum albumin (BSA, Sigma-Aldrich) in PBS before use.
According to a protocol for differentiation into retinal cells, Wnt3a and Dkk-1 were added on Day 13 at the following concentrations: 50 ng/ml Wnt3a (group I), free of both Wnt3a and Dkk-1 (group II), 10 ng/ml Dkk-1 (group III), 100 ng/ml Dkk-1 (group IV), and […] Dkk-1 (group V). In each medium, the cells were cultured to Day 29. In this experiment, none of the other major differentiation factors Shh and RA were used.
On Day 29, the cells which had been cultured on poly-D-lysine/laminin-coated, 8-well slides (BD Biosciences) under the conditions of Wnt3a and Dkk-1 (groups I-V) were fixed with 4% paraformaldehyde (Sigma-Aldrich), after which non-specific reactions were blocked with PBS containing 3% BSA (Jackson Immunoresearch Laboratory, Bar Harbor, Me., USA) and 0.25% Triton X-100 (Sigma-Aldrich).
(§1) After being blocked for 90 min, the slides in each differentiation step were incubated overnight at 4° C. with the following antibodies specific for cells of each differentiation step: rabbit-Blue-opsin (1:500, Chemicon), sheep-Chx10 (1:100, Chemicon), rabbit-Crx (1:200, Santa Cruz Biotechnology, Santa Cruz, Calif., USA), rabbit-GFAP (1:200, Invitrogen), mouse-human specific mitochondria (1:50, Chemicon), rabbit-human specific mitochondria (1:200, Chemicon), mouse-Islet1 (1:10, Developmental Studies Hydroma Bank, DSHB; Iowa City, Iowa, USA), mouse-Ki67 (1:100, Vector Laboratories, Peterborough, England), mouse-Mitf (1:1,000, abcam, Cambridge, Mass., USA), mouse-nestin (1:250, BD Sciences), rabbit-neurofilament-200 (1:1,000, Sigma-Aldrich), rabbit-Otx2 (1:100, abcam), rabbit-Pax2 (1:250, abcam), mouse-Pax6 (1:2, DSHB), mouse-peripherin2 (1:500, GenScript, Piscataway, N.J., USA), rabbit-Rax (1:250, abcam), rabbit-recoverin (1:1,000, Chemicon), retinal pigment epithelium 65 (RPE65, 1:100, Chemicon), rabbit-rhodopsin (1:500, Sigma-Aldrich), mouse-rhodopsin (1:500, Ret-P1, Lab Vision, Fremont, Calif., USA), mouse-rhodopsin (1:2,000, Ret-P1, Sigma-Aldrich), mouse-rom1 (1:50, ABR-Affinity Bioreagents, Golden, Colo., USA), rabbit-PDE6 beta (1:100, abcam), rabbit-phosducin (1:500, Santa Cruz Biotechnology), mouse-PKC-alpha (1:500, Sigma-Aldrich), mouse-Prox1 (1:2,000, Chemicon), mouse-Sox2 (1:250, R&D Systems), rabbit-synaptophysin (1:2,000, Santa Cruz Biotechnology), and rabbit-ZO-1 (1:100, Zymed-Invitrogen).
Before use, these antibodies were diluted in a PBS solution containing 1% BSA and 0.25% Triton X-100. The cells were washed three times for 5 min with PBS and incubated at room temperature for 2 hrs with species-specific secondary antibody conjugated with Cy3 (1:800, Jackson Immunoresearch Laboratory) or Alexa488 (1:500, Invitrogen). A standard material suitable for the primary and the secondary antibody was used to examine non-specific staining or interaction between the antibodies. Afterwards, the cells were washed three times for 5 min with PBS, counterstained with DAPI (4,6-diamidino-2 phenylindole) and mounted in Vectashield (Vector Laboratories), followed by visualization under an epifluorescence microscope (Nikon Eclipse, E800, Tokyo, Japan) and a confocal microscope (Leica, Leica Microsystems Inc, Bannockburn, Ill., USA or Zeiss LSM510, Carl Zeiss, Inc, Thornwood, N.Y., USA). […]

[2] = system: hESC-derived retinal progenitor cells; test: Expression levels of retinal cell markers before and after Wnt3a addition (retinal progenitor cells into neural retinal progenitor cells); settings: on Day 18; Wnt3a 50 ng/ml for 5 days from Day 13
Experimental: To differentiate the retinal progenitor cells generated in Example 3 into neural retinal progenitor cells, Dkk-1 supply was quit on day 3 after induction and a culture medium containing a combination of noggin, IGF-1, FGF2 and Wnt3a was supplied for 5 days (FIG. 1). The culture medium was composed as follows: [DMEM/F12 (Invitrogen), 1 mM L-glutamine (Invitrogen), 0.1 mM nonessential amino acids (Invitrogen), 0.1 mM mercaptoethanol (Sigma-Aldrich), 1% B27 supplement (Invitrogen), 1% N2 supplement (Invitrogen), 10 ng/ml noggin, 10 ng/ml IGF-1, 5 ng/ml FGF2, and 50 ng/ml recombinant Wnt3a (R&D Systems)].
The eye field precursors (floating aggregates) were cultured in 8-well poly-D-lysine/laminin-coated slides (BD Biosciences, Bedford, Mass.) under the same conditions that were used for differentiation into the retinal progenitor cells, the neural retinal progenitor cells, the photoreceptor cell precursors and the photoreceptor cells. The cells completely cultured in each step were fixed with 4% paraformaldehyde (Sigma-Aldrich), after which non-specific reactions were blocked with PBS containing 3% BSA (Jackson Immunoresearch Laboratory, Bar Harbor, Me., USA) and 0.25% Triton X-100 (Sigma-Aldrich).
as §1
Before use, these antibodies were diluted in a PBS solution containing 1% BSA and 0.25% Triton X-100. The cells cultured on the slides in each step were washed three times for 5 min with PBS and incubated at room temperature for 2 hrs with species-specific secondary antibody conjugated with Cy3 (1:800, Jackson Immunoresearch Laboratory) or Alexa488 (1:500, Invitrogen). A standard material suitable for the primary and the secondary antibody was used to examine non-specific staining or interaction between the antibodies. Afterwards, the cells were washed three times for 5 min with PBS, counterstained with DAPI (4,6-diamidino-2 phenylindole) and mounted in Vectashield (Vector Laboratories), followed by visualization under an epifluorescence microscope (Nikon Eclipse, E800, Tokyo, Japan) and a confocal microscope (Leica, Leica Microsystems Inc, Bannockburn, Ill., USA or Zeiss LSM510, Carl Zeiss, Inc, Thornwood, N.Y., USA).
500 cells were counted from 20 microscopic fields randomly selected at 200 magnification and evaluated for positive responses to each antibody. Positive responses to antibodies were determined after at least three evaluations. […]

[3] = system: hESC-derived retinal progenitor cells; test: as above
[4] = Wnt3a 50 ng/ml (Group I), from Day 13 to Day 29, no Shh, no RA
[5] = Dkk-1 10 ng/ml (Group III), from Day 13 to Day 29, no Wnt3a, Shh, RA
[6] = Dkk-1 10 ng/ml, 100 ng/ml, 1 μg/ml
[7] = Dkk-1 100 ng/ml (Group IV), from Day 13 to Day 29, no Wnt3a, Shh, RA
[8] = Dkk-1 1 μg/ml (Group V), from Day 13 to Day 29, no Wnt3a, Shh, RA

B1: Wnt3a: recombinant Wnt3a (R&D Systems), Wnt signaling pathway activator (protein, UniProt P56704 19-352, looked up)
Protein Wnt-3a: SYPIWWSLAVGPQYSSLGSQPILCASIPGLVPKQLRFCRNYVEIMPSVAEGIKIGIQECQHQFRGRRWNCTTVHDSLAIFGPVLDKATRESAFVHAIASAGVAFAVTRSCAEGTAAICGCSSRHQGSPGKGWKWGGCSEDIEFGGMVSREFADARENRPDARSAMNRHNNEAGRQAIASHMHLKCKCHGLSGSCEVKTCWWSQPDFRAIGDFLKDKYDSASEMVVEKHRESRGWVETLRPRYTYFKVPTERDLVYYEASPNFCEPNPETGSFGTRDRTCNVSSHGIDGCDLLCCGRGHNARAERRREKCRCVFHWCCYVSCQECTRVYDVHTCK
Positive rate of Crx [1, 4]: 32.5 (±0.3) % | Positive rate of Pax6 [1, 4]: 82.1 (±4.0) % | Positive rate of peripherin2 [1, 4]: 21.5 (±0.3) % | Positive rate of recoverin [1, 4]: 72.3 (±0.8) % | Positive rate of rhodopsin [1, 4]: 73.8 (±0.9) % | Expression level (positive rate) of Chx10 after Wnt3a addition [2]: 64.5 (±1.6) % | Expression level (positive rate) of Crx after Wnt3a addition [2]: 80.1% and 80.1 (±0.2) % | Expression level (positive rate) of Ki67 after Wnt3a addition [2]: 31.5 (±0.5) % | Expression level (positive rate) of Mitf after Wnt3a addition [2]: 2.7 (±1.0) % | Expression level (positive rate) of Nestin after Wnt3a addition [2]: 18.0% and 18.0 (±1.4) % | Expression level (positive rate) of Otx2 after Wnt3a addition [2]: 61.5 (±0.6) % | Expression level (positive rate) of Pax6 after Wnt3a addition [2]: 89.1 (±2.5) % | Expression level (positive rate) of Peripherin2 after Wnt3a addition [2]: 13.9% and 13.9 (±2.4) % | Expression level (positive rate) of Rax after Wnt3a addition [2]: 98.2 (±0.9) % | Expression level (positive rate) of Recoverin after Wnt3a addition [2]: 68.5% and 68.5 (±2.6) % | Expression level (positive rate) of Rhodopsin after Wnt3a addition [2]: 52.9% and 52.9 (±3.4) % | Expression level (positive rate) of Sox2 after Wnt3a addition [2]: 68.1 (±1.1) % | Pax6-positive cells with increase in Wnt3a concentration [3]: increased in a dose-dependent manner

B2: Dkk-1: recombinant Dkk-1 (R&D Systems), Wnt/Frizzled signaling pathway inhibitor (protein, UniProt O94907 32-266, looked up)
Dickkopf-related protein 1: TLNSVLNSNAIKNLPPPLGGAAGHPGSAVSAAPGILYPGGNKYQTIDNYQPYPCAEDEECGTDEYCASPTRGGDAGVQICLACRKRRKRCMRHAMCCPGNYCKNGICVSSDQNHFRGEIEETITESFGNDHSTLDGYSRRTTLSSKMYHTKGQEGSVCLRSSDCASGLCCARHFWSKICKPVLKEGQVCTKHRRKGSHGLEIFQRCYCGEGLSCRIQKDHHQASNSSRLHTCQRH
Positive rate of Crx [1, 5]: 54.3 (±3.1) % | Positive rate of Pax6 [1, 5]: 63.9 (±0.9) % | Positive rate of peripherin2 [1, 5]: 27.0 (±1.0) % | Positive rate of recoverin [1, 5]: 55.1 (±0.6) % | Positive rate of rhodopsin [1, 5]: 49.1 (±2.0) % | Expression level of photoreceptor cell markers Crx, recoverin, rhodopsin and peripherin2 with increasing Dkk-1 concentration [1, 6]: remarkably decreased | Expression level of retinal progenitor cell marker Pax6 with increase in Dkk-1 concentration [1, 6]: decreased | Positive rate of Crx [1, 7]: 7.4 (±1.1) % | Positive rate of Pax6 [1, 7]: 51.8 (±1.0) % | Positive rate of peripherin2 [1, 7]: 2.1 (±1.0) % | Positive rate of recoverin [1, 7]: 41.5 (±1.3) % | Positive rate of rhodopsin [1, 7]: 28.9 (±0.5) % | Positive rate of Crx [1, 8]: 7.5 (±0.9) % | Positive rate of Pax6 [1, 8]: 42.1 (±2.1) % | Positive rate of peripherin2 [1, 8]: 0.1 (±0.1) % | Positive rate of recoverin [1, 8]: 15.2 (±4.0) % | Positive rate of rhodopsin [1, 8]: 11.9% and 11.9 (±3.0) %
